In PMC10765524:
*1 amine or outer side, *2 acyl side, *3 side chain or, on linkers, in order; H or OH if unused. Where no end group is shown, it is not given here. [ ]: non-standard residue; d: D form. tpS = thiophosphoserine, O=C([C@H](COP(O)(O)=S)N[*:1])[*:2]

Target: PP2A:B55 holoenzyme (PP2Aa, B55, PP2Ac) (UniProt P30153)
Sequence (P30153 9-589, chain 1 of 3): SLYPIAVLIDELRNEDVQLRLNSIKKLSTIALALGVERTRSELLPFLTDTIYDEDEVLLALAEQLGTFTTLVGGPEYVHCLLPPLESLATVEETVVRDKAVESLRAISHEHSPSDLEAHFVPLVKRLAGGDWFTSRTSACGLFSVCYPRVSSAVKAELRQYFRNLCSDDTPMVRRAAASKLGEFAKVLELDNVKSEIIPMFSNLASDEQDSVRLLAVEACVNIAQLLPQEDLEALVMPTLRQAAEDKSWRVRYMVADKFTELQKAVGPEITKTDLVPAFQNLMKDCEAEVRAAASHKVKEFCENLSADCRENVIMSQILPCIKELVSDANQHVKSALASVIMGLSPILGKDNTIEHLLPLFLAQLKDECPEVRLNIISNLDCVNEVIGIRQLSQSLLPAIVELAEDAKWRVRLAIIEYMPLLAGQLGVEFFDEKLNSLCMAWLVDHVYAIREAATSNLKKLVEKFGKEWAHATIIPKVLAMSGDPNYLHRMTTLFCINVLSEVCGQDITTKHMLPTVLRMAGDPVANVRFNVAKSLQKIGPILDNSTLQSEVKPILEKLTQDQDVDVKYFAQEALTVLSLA
Sequence (P63151 whole entry, chain 2 of 3, further chain): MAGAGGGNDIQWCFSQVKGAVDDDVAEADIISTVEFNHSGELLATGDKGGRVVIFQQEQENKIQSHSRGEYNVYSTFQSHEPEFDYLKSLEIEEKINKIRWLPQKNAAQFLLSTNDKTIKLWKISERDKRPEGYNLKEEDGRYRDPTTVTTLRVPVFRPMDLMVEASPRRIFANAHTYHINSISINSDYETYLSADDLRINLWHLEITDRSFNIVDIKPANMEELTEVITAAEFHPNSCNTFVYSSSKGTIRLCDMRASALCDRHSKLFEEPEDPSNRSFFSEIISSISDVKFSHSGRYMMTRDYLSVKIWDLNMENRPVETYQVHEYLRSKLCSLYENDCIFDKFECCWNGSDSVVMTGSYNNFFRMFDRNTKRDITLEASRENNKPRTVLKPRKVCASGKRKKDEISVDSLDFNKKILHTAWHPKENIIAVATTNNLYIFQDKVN
Sequence (P67775 whole entry, chain 3 of 3, further chain): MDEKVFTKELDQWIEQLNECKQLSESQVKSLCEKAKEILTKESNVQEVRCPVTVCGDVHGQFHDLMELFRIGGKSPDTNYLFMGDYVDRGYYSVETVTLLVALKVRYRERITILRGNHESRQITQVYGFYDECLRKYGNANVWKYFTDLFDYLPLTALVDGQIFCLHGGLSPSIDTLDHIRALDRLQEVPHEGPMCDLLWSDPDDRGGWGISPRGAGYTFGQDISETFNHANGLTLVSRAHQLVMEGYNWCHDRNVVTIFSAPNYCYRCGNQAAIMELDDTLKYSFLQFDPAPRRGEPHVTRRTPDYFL

B1: tpARPP19_(19–75) (domain or fragment)
chain: DKVTSPEKAEEAKLKARYPHLGQKPGGSDFLRKRLQKGQKYFD[tpS]GDYNMAKAKMKNK
modifications: also: thiophosphorylated, site not given here
Q: With B1 as the binder, how does the IC50 of PP2A:B55 inhibition (DiFMUP), against tpARPP19 read?
A: > 50 fold
